Assay results published in publication PMC2132786.

Tests used:
Assay in all cases: sucrose density gradient sedimentation
[1] = target: V55P/S71P double proline mutant hemagglutinin (X:31 strain, HA2 V55P and S71P) (influenza virus, X:31 strain) (UniProt P03437)
[2] = target: S71P mutant hemagglutinin (X:31 strain, HA2 S71P) (influenza virus, X:31 strain) (UniProt P03437)
[3] = target: L80P mutant hemagglutinin (X:31 strain, HA2 L80P) (influenza virus, X:31 strain) (UniProt P03437)

“V55P/S71P double proline mutant hemagglutinin (X:31 strain, HA2 V55P and S71P) (from UniProt P03437 17-344) (natural protein)” was tested, and the stoichiometry N [1] was 3.
Work on “S71P mutant hemagglutinin (X:31 strain, HA2 S71P) (from UniProt P03437 17-344) (natural protein)” yielded a stoichiometry N [2] of 3.
For “L80P mutant hemagglutinin (X:31 strain, HA2 L80P) (from UniProt P03437 17-344) (natural protein)”, the stoichiometry N [3] was 3.
